Measurements as given in patent US20220025381A1.

Tests used:
Test in all cases: cell-based or functional assay
[1] = target: CD92 PV1-CaffVHH-L1-iCre-271C-NLS-BGHpA
[2] = target: T1, CD374 PV1-RfxCas13d-560C-NLS-BGHpA
T1 sequence: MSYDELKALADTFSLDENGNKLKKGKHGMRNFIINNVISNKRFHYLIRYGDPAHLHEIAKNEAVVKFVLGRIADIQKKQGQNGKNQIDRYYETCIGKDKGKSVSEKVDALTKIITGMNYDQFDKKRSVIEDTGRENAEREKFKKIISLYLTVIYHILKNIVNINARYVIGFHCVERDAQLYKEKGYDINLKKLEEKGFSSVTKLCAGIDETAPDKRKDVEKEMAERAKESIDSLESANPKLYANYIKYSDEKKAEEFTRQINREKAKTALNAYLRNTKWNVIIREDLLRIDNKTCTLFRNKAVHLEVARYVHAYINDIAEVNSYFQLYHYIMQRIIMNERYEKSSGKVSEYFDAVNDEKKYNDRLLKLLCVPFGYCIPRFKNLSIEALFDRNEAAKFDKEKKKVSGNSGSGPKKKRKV

[3] = target: T2, CD244 PV1-GAI-L1-RfxCas13d-560C-NLS-BGHpA
T2 sequence: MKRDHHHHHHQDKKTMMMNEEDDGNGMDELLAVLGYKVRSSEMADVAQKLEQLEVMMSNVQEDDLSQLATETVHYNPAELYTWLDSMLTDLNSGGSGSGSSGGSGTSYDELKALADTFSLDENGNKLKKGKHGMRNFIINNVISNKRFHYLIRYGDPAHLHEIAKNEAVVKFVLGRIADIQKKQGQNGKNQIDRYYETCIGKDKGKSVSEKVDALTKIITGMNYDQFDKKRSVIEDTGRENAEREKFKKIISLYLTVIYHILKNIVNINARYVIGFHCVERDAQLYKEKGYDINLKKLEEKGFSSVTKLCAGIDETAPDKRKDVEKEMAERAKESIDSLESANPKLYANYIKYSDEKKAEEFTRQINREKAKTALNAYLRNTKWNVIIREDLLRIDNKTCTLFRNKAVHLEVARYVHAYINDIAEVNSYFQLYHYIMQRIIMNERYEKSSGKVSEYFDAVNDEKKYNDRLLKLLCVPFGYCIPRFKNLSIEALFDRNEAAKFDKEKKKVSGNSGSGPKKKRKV

[4] = target: T3, CD246 PV1-GAI-L1-RfxCas13d-566C-NLS-BGHpA
T3 sequence: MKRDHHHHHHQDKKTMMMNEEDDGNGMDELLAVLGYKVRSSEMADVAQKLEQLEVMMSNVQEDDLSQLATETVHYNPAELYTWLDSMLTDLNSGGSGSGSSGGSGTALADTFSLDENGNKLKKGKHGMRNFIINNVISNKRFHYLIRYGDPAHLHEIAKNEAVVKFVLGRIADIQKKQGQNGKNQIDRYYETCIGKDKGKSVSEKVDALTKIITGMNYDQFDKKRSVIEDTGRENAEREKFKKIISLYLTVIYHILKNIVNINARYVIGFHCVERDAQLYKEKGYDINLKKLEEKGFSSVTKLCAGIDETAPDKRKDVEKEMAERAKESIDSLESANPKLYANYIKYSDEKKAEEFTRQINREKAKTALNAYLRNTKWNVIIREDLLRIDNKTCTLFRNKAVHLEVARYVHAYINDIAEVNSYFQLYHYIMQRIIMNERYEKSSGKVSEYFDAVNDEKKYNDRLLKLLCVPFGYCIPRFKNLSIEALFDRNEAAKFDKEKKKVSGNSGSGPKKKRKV

[5] = target: CD176 PV1-tandem CaffVHH-L1-iCre-271C-NLS-BGHpA
Chain of CD176 PV1-tandem CaffVHH-L1-iCre-271C-NLS-BGHpA (chain, as listed by the source): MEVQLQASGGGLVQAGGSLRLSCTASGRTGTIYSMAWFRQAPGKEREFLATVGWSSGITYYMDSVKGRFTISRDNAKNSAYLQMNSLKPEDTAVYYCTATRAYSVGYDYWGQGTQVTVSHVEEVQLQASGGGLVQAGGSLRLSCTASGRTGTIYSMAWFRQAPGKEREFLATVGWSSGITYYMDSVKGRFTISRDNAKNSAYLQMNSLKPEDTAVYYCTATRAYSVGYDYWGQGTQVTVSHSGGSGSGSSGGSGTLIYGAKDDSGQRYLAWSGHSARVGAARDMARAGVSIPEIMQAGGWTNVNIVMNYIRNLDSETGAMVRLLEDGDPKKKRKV

Chain of CD92 PV1-CaffVHH-L1-iCre-271C-NLS-BGHpA (chain, as listed by the source): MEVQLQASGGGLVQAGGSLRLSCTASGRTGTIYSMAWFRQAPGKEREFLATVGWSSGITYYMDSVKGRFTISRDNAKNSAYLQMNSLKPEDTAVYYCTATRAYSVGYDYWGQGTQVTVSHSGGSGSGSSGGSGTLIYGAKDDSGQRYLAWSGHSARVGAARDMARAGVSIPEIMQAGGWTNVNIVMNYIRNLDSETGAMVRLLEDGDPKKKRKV

B1: CD91 PV1-iCre-N270-L1-CaffVHH-NLS-BGHpA (protein)
chain: MSNLLTVHQNLPALPVDATSDEVRKNLMDMFRDRQAFSEHTWKMLLSVCRSWAAWCKLNNRKWFPAEPEDVRDYLLYLQARGLAVKTIQQHLGQLNMLHRRSGLPRPSDSNAVSLVMRRIRKENVDAGERAKQALAFERTDFDQVRSLMENSDRCQDIRNLAFLGIAYNTLLRIAEIARIRVKDISRTDGGRMLIHIGRTKTLVSTAGVEKALSLGVTKLVERWISVSGVADDPNNYLFCRVRKNGVAAPSATSQLSTRALEGIFEATHRSGGSGSGSSGGSGTMEVQLQASGGGLVQAGGSLRLSCTASGRTGTIYSMAWFRQAPGKEREFLATVGWSSGITYYMDSVKGRFTISRDNAKNSAYLQMNSLKPEDTAVYYCTATRAYSVGYDYWGQGTQVTVSHPKKKRKV
- Cre reporter expression, share of transfected cells, 25 uM caffeine for 5 hours (% of transfected cells) [1]: 30
- Cre reporter turned on, share of transfected cells, caffeine at least 50 uM, induction at least 5 hours (% of transfected cells) [1]: 38
- Cre reporter turned on, share of transfected cells, with caffeine, 48 hours (% of transfected cells) [1]: > 80
- caffeine concentration able to turn on Cre activity and generate reporter expression in 48 hours [1]: 0.1 µM caffeine
- caffeine concentration at which similar, if not less, recombination efficiency was reached (single CaffVHH) [1]: 500 µM caffeine

B2: CD373 PV1-RfxCas13d-N559-NLS-BGHpA (protein)
chain: MIEKKKSFAKGMGVKSTLVSGSKVYMTTFAEGSDARLEKIVEGDSIRSVNEGEAFSAEMADKNAGYKIGNAKFSHPKGYAVVANNPLYTGPVQQDMLGLKETLEKRYFGESADGNDNICIQVIHNILDIEKILAEYITNAAYAVNNISGLDKDIIGFGKFSTVYTYDEFKDPEHHRAAFNNNDKLINAIKAQYDEFDNFLDNPRLGYFGQAFFSKEGRNYIINYGNECYDILALLSGLRHWVVHNNEEESRISRTWLYNLDKNLDNEYISTLNYLYDRITNELTNSFSKNSAANVNYIAETLGINPAEFAEQYFRFSIMKEQKNLGFNITKLREVMLDRKDMSEIRKNHKVFDSIRTKVYTMMDFVIYRYYIEEDAKVAAANKSLPDNEKSLSEKDIFVINLRGSFNDDQKDALYYDEANRIWRKLENIMHNIKEFRGNKTREYKKKDAPRLPRILPAGRDVSAFSKLMYALTMFLDGKEINDLLTTLINKFDNIQSFLKVMPLIGVNAKFVEEYAFFKDSAKIADELRLIKSFARMGEPIADARRAMYIDAIRILGTNLPKKKRKV
- gRNA induced knockdown of mCherry without CID domains [2]: < 80%

B3: CD243 PV1-RfxCas13d-N559-L1-GID-NLS-BGHpA (protein)
chain: MIEKKKSFAKGMGVKSTLVSGSKVYMTTFAEGSDARLEKIVEGDSIRSVNEGEAFSAEMADKNAGYKIGNAKFSHPKGYAVVANNPLYTGPVQQDMLGLKETLEKRYFGESADGNDNICIQVIHNILDIEKILAEYITNAAYAVNNISGLDKDIIGFGKFSTVYTYDEFKDPEHHRAAFNNNDKLINAIKAQYDEFDNFLDNPRLGYFGQAFFSKEGRNYIINYGNECYDILALLSGLRHWVVHNNEEESRISRTWLYNLDKNLDNEYISTLNYLYDRITNELTNSFSKNSAANVNYIAETLGINPAEFAEQYFRFSIMKEQKNLGFNITKLREVMLDRKDMSEIRKNHKVFDSIRTKVYTMMDFVIYRYYIEEDAKVAAANKSLPDNEKSLSEKDIFVINLRGSFNDDQKDALYYDEANRIWRKLENIMHNIKEFRGNKTREYKKKDAPRLPRILPAGRDVSAFSKLMYALTMFLDGKEINDLLTTLINKFDNIQSFLKVMPLIGVNAKFVEEYAFFKDSAKIADELRLIKSFARMGEPIADARRAMYIDAIRILGTNLSGGSGSGSSGGSGTMAASDEVNLIESRTVVPLNTWVLISNFKVAYNILRRPDGTFNRHLAEYLDRKVTANANPVDGVFSFDVLIDRRINLLSRVYRPAYADQEQPPSILDLEKPVDGDIVPVILFFHGGSFAHSSANSAIYDTLCRRLVGLCKCVVVSVNYRRAPENPYPCAYDDGWIALNWVNSRSWLKSKKDSKVHIFLAGDSSGGNIAHNVALRAGESGIDVLGNILLNPMFGGNERTESEKSLDGKYFVTVRDRDWYWKAFLPEGEDREHPACNPFSPRGKSLEGVSFPKSLVVVAGLDLIRDWQLAYAEGLKKAGQEVKLMHLEKATVGFYLLPNNNHFHNVMDEISAFVNAECPKKKRKV
- basal knockdown of mCherry induced by gRNA, no gibberellin [3]: 10 to 20%
- drug-induced knockdown of mCherry with gRNA [3]: > 75%

B4: CD245 PV1-RfxCas13d-N565-L1-GID-NLS-BGHpA (protein)
chain: MIEKKKSFAKGMGVKSTLVSGSKVYMTTFAEGSDARLEKIVEGDSIRSVNEGEAFSAEMADKNAGYKIGNAKFSHPKGYAVVANNPLYTGPVQQDMLGLKETLEKRYFGESADGNDNICIQVIHNILDIEKILAEYITNAAYAVNNISGLDKDIIGFGKFSTVYTYDEFKDPEHHRAAFNNNDKLINAIKAQYDEFDNFLDNPRLGYFGQAFFSKEGRNYIINYGNECYDILALLSGLRHWVVHNNEEESRISRTWLYNLDKNLDNEYISTLNYLYDRITNELTNSFSKNSAANVNYIAETLGINPAEFAEQYFRFSIMKEQKNLGFNITKLREVMLDRKDMSEIRKNHKVFDSIRTKVYTMMDFVIYRYYIEEDAKVAAANKSLPDNEKSLSEKDIFVINLRGSFNDDQKDALYYDEANRIWRKLENIMHNIKEFRGNKTREYKKKDAPRLPRILPAGRDVSAFSKLMYALTMFLDGKEINDLLTTLINKFDNIQSFLKVMPLIGVNAKFVEEYAFFKDSAKIADELRLIKSFARMGEPIADARRAMYIDAIRILGTNLSYDELKSGGSGSGSSGGSGTMAASDEVNLIESRTVVPLNTWVLISNFKVAYNILRRPDGTFNRHLAEYLDRKVTANANPVDGVFSFDVLIDRRINLLSRVYRPAYADQEQPPSILDLEKPVDGDIVPVILFFHGGSFAHSSANSAIYDTLCRRLVGLCKCVVVSVNYRRAPENPYPCAYDDGWIALNWVNSRSWLKSKKDSKVHIFLAGDSSGGNIAHNVALRAGESGIDVLGNILLNPMFGGNERTESEKSLDGKYFVTVRDRDWYWKAFLPEGEDREHPACNPFSPRGKSLEGVSFPKSLVVVAGLDLIRDWQLAYAEGLKKAGQEVKLMHLEKATVGFYLLPNNNHFHNVMDEISAFVNAECPKKKRKV
- basal knockdown of mCherry induced by gRNA, no gibberellin [4]: 10 to 20%
- drug-induced knockdown of mCherry with gRNA [4]: > 75%

B5: CD175 PV1-iCre-N270-L1-tandem CaffVHH-NLS-BGHpA (protein)
chain: MSNLLTVHQNLPALPVDATSDEVRKNLMDMFRDRQAFSEHTWKMLLSVCRSWAAWCKLNNRKWFPAEPEDVRDYLLYLQARGLAVKTIQQHLGQLNMLHRRSGLPRPSDSNAVSLVMRRIRKENVDAGERAKQALAFERTDFDQVRSLMENSDRCQDIRNLAFLGIAYNTLLRIAEIARIRVKDISRTDGGRMLIHIGRTKTLVSTAGVEKALSLGVTKLVERWISVSGVADDPNNYLFCRVRKNGVAAPSATSQLSTRALEGIFEATHRSGGSGSGSSGGSGTMEVQLQASGGGLVQAGGSLRLSCTASGRTGTIYSMAWFRQAPGKEREFLATVGWSSGITYYMDSVKGRFTISRDNAKNSAYLQMNSLKPEDTAVYYCTATRAYSVGYDYWGQGTQVTVSHVEEVQLQASGGGLVQAGGSLRLSCTASGRTGTIYSMAWFRQAPGKEREFLATVGWSSGITYYMDSVKGRFTISRDNAKNSAYLQMNSLKPEDTAVYYCTATRAYSVGYDYWGQGTQVTVSHPKKKRKV
- caffeine concentration at maximum recombination efficiency [5]: 20 µM caffeine
- recombination against the single CaffVHH version, same induction conditions [5]: < 13 fold
